Laboratory results published in article PMC7320145, “Substrate Channeling via a Transient Protein-Protein Complex: The case of D-Glyceraldehyde-3-Phosphate Dehydrogenase and L-Lactate Dehydrogenase” (Scientific Reports, 2020).

B1: porcine heart L-lactate dehydrogenase (enzyme)
chain: not shown
notes: L-lactate dehydrogenase from porcine heart (phLDH), tetramer; also called phLDH; PhLDH
B2: baker's yeast D-glyceraldehyde-3-phosphate dehydrogenase (enzyme)
chain: VRVAINGFGRIGRLVMRIALSRPNVEVVALNDPFITNDYAAYMFKYDSTHGRYAGEVSHDDKHIIVDGKKIATYQERDPANLPWGSSNVDIAIDSTGVFKELDTAQKHIDAGAKKVVITAPSSTAPMFVMGVNEEKYTSDLKIVSNASCTTNCLAPLAKVINDAFGIEEGLMTTVHSLTATQKTVDGPSHKDWRGGRTASGNIIPSSTGAAKAVGKVLPELQGKLTGMAFRVPTVDVSVVDLTVKLNKETTYDEIKKVVKAAAEGKLKGVLGYTEDAVVSSDFLGDSHSSIFDASAGIQLSPKFVKLVSWYDNEYGYSTRVVDLVEHVAKA
modifications: Homotetramer, apo-enzyme preparation from yeast (NADH added in the binding assays). The isozyme is taken as TDH3 because the cited PDB 3PYM is GAPDH 3. The natural preparation may contain minor …

How the values were obtained:
[1] = molecular target: T1, rabbit muscle D-glyceraldehyde-3-phosphate dehydrogenase (rabbit, UniProt P46406 2-333); assay: cell-based or functional assay
T1 sequence (P46406 2-333): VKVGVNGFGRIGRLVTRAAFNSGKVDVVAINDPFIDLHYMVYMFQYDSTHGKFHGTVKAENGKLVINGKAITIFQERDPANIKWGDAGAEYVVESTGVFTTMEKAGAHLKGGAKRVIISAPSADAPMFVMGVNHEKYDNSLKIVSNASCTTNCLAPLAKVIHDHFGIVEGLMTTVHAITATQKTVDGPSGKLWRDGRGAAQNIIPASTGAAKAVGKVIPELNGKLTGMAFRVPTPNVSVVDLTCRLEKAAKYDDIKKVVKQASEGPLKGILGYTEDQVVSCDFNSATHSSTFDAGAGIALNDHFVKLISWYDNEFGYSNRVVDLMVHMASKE

[2] = molecular target: B2; assay: cell-based or functional assay
[3] = molecular target: the molecule itself; assay: AUC; sedimentation velocity of each enzyme alone at 6 μM; scans at 280 nm, 7 hours at 40,000 x g; SEDFIT with s and Mr as free fit parameters; Mr compared with the mass calculated from the sequence
[4] = molecular target: T1, rabbit muscle …; assay: cell-based or functional assay; remark: listed apart in the source
[5] = molecular target: B2; assay: cell-based or functional assay; remark: listed apart in the source
[6] = molecular target: B1; assay: AUC; sedimentation velocity of a mixture of phLDH and byGAPDH, each 6 μM; 50 mM Tris/HCl, pH = 7.2, 1 mM EDTA, 0.5 mM DTT; scans at 280 nm, 7 hours at 40,000 x g; fit with SEDFIT to a one-component model and compared with a Claverie simulation of 10% association; conditions: both partners purified

Binder | apparent KM of phLDH with rmGAPDH-NADH complex as substrate (630 μM pyruvate) [1] [µM] | apparent KM of phLDH with byGAPDH-NADH complex as substrate (630 μM pyruvate) [2] [µM] | binding result [3] | ratio between measured phLDH activity and the calculated free-diffusion activity; 40 μM NADH, rmGAPDH 100 to 240 μM of NADH binding sites; ratio rises from 1.3 to 2.0 fold [4] [fold] | ratio between measured phLDH activity and the calculated free-diffusion activity; rmGAPDH fixed at 200 μM NADH binding sites, NADH decreased from 40 to 10 μM; ratio rises from 1.7 to 2.28 fold [4] [fold] | ratio between measured phLDH activity and the calculated free-diffusion activity; 40 μM NADH, byGAPDH 240 to 480 μM of NADH binding sites; ratio rises from 3.5 to 6.1 fold [5] [fold] | ratio between measured phLDH activity and the calculated free-diffusion activity; byGAPDH fixed at 480 μM NADH binding sites, NADH decreased from 40 to 10 μM; ratio rises from 5.2 to 6.6 fold [5] [fold] | Kd [6] [µM]
B1 | 59.6 | 116 | binds | 2 | 2.28 | 6.1 | 6.6 | –
B2 | – | – | – | – | – | – | – | ≥ 48.6
